The text below walks through data of JP2016528193A.

The target in experiment [1] is ヒトD374Y PCSK9 (human). The experiment can be described thus: competition ELISA: block of biotinylated D374Y PCSK9 (20 ng/mL) binding to captured LDLR. Background: An ELISA detects its analyte on a solid surface through an enzyme-linked reagent.
Experiment [2] concerns the target ヒトD374Y PCSK9 (human). The experiment can be described thus: cell-based or functional assay.
Another experiment concerns the target ヒトPCSK9(野生型) (human). The experiment can be described thus: Biacore at pH 6.0 (HBS-P with 0.01 % BSA), fitted from competition curves, n=1.

In the experiment with ヒトD374Y PCSK9 (human) [1], 21B12 IgG4 (antibody) gave an IC50 of 0.169 nM. The same substance yielded a 細胞LDL取り込みアッセイ(HepG2、LDL-BODIPY)のIC50 with ヒトD374Y PCSK9 (human) [2] of 18 nM.

As for 21B12 IgG2 (antibody), the half-maximal inhibitory concentration (IC50) in the experiment with ヒトD374Y PCSK9 (human) [1] is 0.17 nM. This substance also had a 細胞LDL取り込みアッセイ(HepG2、LDL-BODIPY)のIC50 in the experiment with ヒトD374Y PCSK9 (human) [2] of 13.3 nM. The substance 31H4 IgG2 (antibody) came in with an IC50 with ヒトD374Y PCSK9 (human) [1] of 0.199 nM. The same substance showed a 細胞LDL取り込みアッセイ(HepG2、LDL-BODIPY)のIC50 with ヒトD374Y PCSK9 (human) [2] of 16.7 nM. 31H4 IgG4 (antibody): the IC50 with ヒトD374Y PCSK9 (human) [1] was determined as 0.156 nM. In the experiment with ヒトD374Y PCSK9 (human) [2], the 細胞LDL取り込みアッセイ(HepG2、LDL-BODIPY)のIC50 was 13.3 nM. 21B12 (antibody) came in with a Kd with ヒトPCSK9(野生型) (human) of 7.3 pM. In other words, the picomolar range.

As a reminder, the IC50 is the point on the concentration scale where inhibition reaches its midpoint. By Kd is commonly meant a measure of binding affinity in units of concentration. Low values mean higher affinity, high ones lower affinity.
